What all share (assay): SPOT array
For test [1], the target named is T1, Yfr024 SH3 (LSB3_YEAST), P43603.
T1 chain: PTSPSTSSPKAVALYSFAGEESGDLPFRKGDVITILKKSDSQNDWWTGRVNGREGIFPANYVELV

The target in test [2] is Sho1 SH3 (SHO1_YEAST), P40073.
Test [3] has as its target T2, Boi2 SH3 (BOI2_YEAST), P39969.
T2 chain: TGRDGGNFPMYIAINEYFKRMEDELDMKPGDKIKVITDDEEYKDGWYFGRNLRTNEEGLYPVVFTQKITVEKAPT

The target in test [4] is T3, Myo5 SH3 (MYO5_YEAST), Q04439.
T3 chain: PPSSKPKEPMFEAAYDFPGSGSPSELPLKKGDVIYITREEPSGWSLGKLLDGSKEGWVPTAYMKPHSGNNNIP

Test [5] concerns the target T4, Rvs167 SH3 (RV167_YEAST), P39743.
T4 chain: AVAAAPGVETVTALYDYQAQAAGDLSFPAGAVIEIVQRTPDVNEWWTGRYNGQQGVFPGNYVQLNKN

In test [6] the target is T5, Boi1 SH3 (BOI1_YEAST), P38041.
T5 chain: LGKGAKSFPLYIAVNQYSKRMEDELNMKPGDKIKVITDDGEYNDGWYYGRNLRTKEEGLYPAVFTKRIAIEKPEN

Test [7] concerns the target T6, Yhr016c SH3 (YSC84_YEAST), P32793.
T6 chain: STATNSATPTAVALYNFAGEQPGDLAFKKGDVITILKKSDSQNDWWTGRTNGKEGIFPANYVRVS

Chain of Sho1 SH3 (SHO1_YEAST), P40073 (P40073 295-366): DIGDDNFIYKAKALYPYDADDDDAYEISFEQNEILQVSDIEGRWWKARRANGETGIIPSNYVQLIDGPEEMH

Turning to WSQMRMNPTNPDWI [YPR074C 45-58], the normalised SPOT signal, Boehringer light units (BLU); mean over the file's lines of this peptide in test [1] was 3220; in test [2] it was 132; in test [3] it was 1320; in test [4], 81.2; in test [5], 892; in test [6], 115. Further, the normalised SPOT signal, Boehringer light units (BLU); mean over the file's lines of this peptide in test [7] came to 1270.

For the molecule WFILKLFPHEPIEG [YMR034C 292-305], the normalised SPOT signal, Boehringer light units (BLU); mean over the file's lines of this peptide in test [1] amounted to 1350; in test [2], 31.7; in test [3], 30.6; in test [4] it was 1270; in test [5] it was 43.8; in test [6] it was 12.8. This molecule gave a normalised SPOT signal, Boehringer light units (BLU); mean over the file's lines of this peptide in test [7] of 131.

Turning to YAVGRIVPDSPTYD [YBL035C 295-308], the normalised SPOT signal, Boehringer light units (BLU); mean over the file's lines of this peptide was found to be 159 in test [1]; 39.9 in test [2]; 33.2 in test [3]; 189 in test [4]; 127 in test [5]; 87.3 in test [6]. This molecule also had a normalised SPOT signal, Boehringer light units (BLU); mean over the file's lines of this peptide in test [7] of 257.

Regarding VWGPKPVPFQPMDV [YAL060W 292-305], the normalised SPOT signal, Boehringer light units (BLU); mean over the file's lines of this peptide in test [1] came to 1000; in test [2], 24.2; in test [3], 247; in test [4], 96.9; in test [5] it was 112; in test [6] it was 479. The same molecule showed a normalised SPOT signal, Boehringer light units (BLU); mean over the file's lines of this peptide in test [7] of 257.

For the molecule WFDLKGLPRQPEPL [YFL041W 550-563], the normalised SPOT signal, Boehringer light units (BLU); mean over the file's lines of this peptide in test [1] was determined as 4860; in test [2] it was 19600; in test [3] it was 409; in test [4], 102; in test [5], 278; in test [6], 78.2. This molecule displayed a normalised SPOT signal, Boehringer light units (BLU); mean over the file's lines of this peptide in test [7] of 201.

With YSPWKLSPLLPILY [YCR001W 27-40], the normalised SPOT signal, Boehringer light units (BLU); mean over the file's lines of this peptide in test [1] was 514; in test [2], 63.6; in test [3] it was 99.3; in test [4], 176; in test [5], 66.5; in test [6] it was 88.3. The same molecule displayed a normalised SPOT signal, Boehringer light units (BLU); mean over the file's lines of this peptide in test [7] of 40.4.

For WENFKEEPGEPLSR [YMR227C 326-339], the normalised SPOT signal, Boehringer light units (BLU); mean over the file's lines of this peptide turned out to be 2790 in test [1]; 38.9 in test [2]; 81.2 in test [3]; 96.8 in test [4]; 82 in test [5]; 104 in test [6]. In test [7], this molecule yielded a normalised SPOT signal, Boehringer light units (BLU); mean over the file's lines of this peptide of 140.

On to YAVDKIMPPTPAKK [YAL024C 308-321], for which the normalised SPOT signal, Boehringer light units (BLU); mean over the file's lines of this peptide in test [1] is 512; in test [2], 112; in test [3] it was 2; in test [4] it was 110; in test [5], 71.5; in test [6] it was 44.9. For the same molecule, in test [7], the normalised SPOT signal, Boehringer light units (BLU); mean over the file's lines of this peptide worked out at 22.

For the molecule WLGNKYDPENPFND [YBL088C 600-613], the normalised SPOT signal, Boehringer light units (BLU); mean over the file's lines of this peptide amounted to 862 in test [1]; 62.8 in test [2]; 70.7 in test [3]; 88.8 in test [4]; 149 in test [5]; 66.1 in test [6]. In addition, in test [7], the normalised SPOT signal, Boehringer light units (BLU); mean over the file's lines of this peptide is 125.

Consider WLDEKRIPSTPVDY [YGR124W 196-209], for which the normalised SPOT signal, Boehringer light units (BLU); mean over the file's lines of this peptide in test [1] was determined as 3060; in test [2], 191; in test [3] it was 184; in test [4], 240; in test [5], 177; in test [6], 107. The normalised SPOT signal, Boehringer light units (BLU); mean over the file's lines of this peptide in test [7] worked out at 278.

For the molecule WRWARDTPRAPGLH [YCR020C 147-160], the normalised SPOT signal, Boehringer light units (BLU); mean over the file's lines of this peptide in test [1] came to 7740; in test [2], 2030; in test [3], 3730; in test [4], 2100; in test [5] it was 1330; in test [6], 46.7. Further, in test [7], the normalised SPOT signal, Boehringer light units (BLU); mean over the file's lines of this peptide was 1970.

For VYRRKSIPFAPHQI [YFR032C 169-182], the normalised SPOT signal, Boehringer light units (BLU); mean over the file's lines of this peptide turned out to be 183 in test [1]; 135 in test [2]; 47 in test [3]; 383 in test [4]; 138 in test [5]; 2560 in test [6]. The same molecule gave a normalised SPOT signal, Boehringer light units (BLU); mean over the file's lines of this peptide in test [7] of 70.7.

In the case of WLDEKRIPSTPIDY [YPR145W 196-209], the normalised SPOT signal, Boehringer light units (BLU); mean over the file's lines of this peptide in test [1] is 1670; in test [2] it was 81.5; in test [3], 962; in test [4] it was 163; in test [5], 897; in test [6], 11.5. In addition, the normalised SPOT signal, Boehringer light units (BLU); mean over the file's lines of this peptide in test [7] was found to be 179.

As to WEALKSVPIPPRKN [YJR113C 98-111], the normalised SPOT signal, Boehringer light units (BLU); mean over the file's lines of this peptide in test [1] is 9510; in test [2], 3290; in test [3], 1740; in test [4] it was 379; in test [5], 2780; in test [6] it was 52300. The molecule further registered a normalised SPOT signal, Boehringer light units (BLU); mean over the file's lines of this peptide in test [7] of 1880.

For the origin of these results see article PMC314469, “Protein Interaction Networks by Proteome Peptide Scanning” (PLoS Biology, 2004).
